Measurements as given in publication PMC6488583.
pKd: −log10 of the molar value.

Columns and labels:
[1] = target: full-length human fibronectin (UniProt P02751); test: ELISA; settings: parent: est. 0.29; read off a plot
[2] = target: full-length human fibronectin (UniProt P02751); test: SPR; Biacore T200; FN amine-coupled to a CM5 chip (1000 RU and 5000 RU); α^UpaB 0.8–100 µM injected; 25 °C, PBS-T (PBS pH 7.4, 0.05% Tween 20); steady-state affinity model; apparent

full-length human fibronectin, sequence (P02751 32-2477): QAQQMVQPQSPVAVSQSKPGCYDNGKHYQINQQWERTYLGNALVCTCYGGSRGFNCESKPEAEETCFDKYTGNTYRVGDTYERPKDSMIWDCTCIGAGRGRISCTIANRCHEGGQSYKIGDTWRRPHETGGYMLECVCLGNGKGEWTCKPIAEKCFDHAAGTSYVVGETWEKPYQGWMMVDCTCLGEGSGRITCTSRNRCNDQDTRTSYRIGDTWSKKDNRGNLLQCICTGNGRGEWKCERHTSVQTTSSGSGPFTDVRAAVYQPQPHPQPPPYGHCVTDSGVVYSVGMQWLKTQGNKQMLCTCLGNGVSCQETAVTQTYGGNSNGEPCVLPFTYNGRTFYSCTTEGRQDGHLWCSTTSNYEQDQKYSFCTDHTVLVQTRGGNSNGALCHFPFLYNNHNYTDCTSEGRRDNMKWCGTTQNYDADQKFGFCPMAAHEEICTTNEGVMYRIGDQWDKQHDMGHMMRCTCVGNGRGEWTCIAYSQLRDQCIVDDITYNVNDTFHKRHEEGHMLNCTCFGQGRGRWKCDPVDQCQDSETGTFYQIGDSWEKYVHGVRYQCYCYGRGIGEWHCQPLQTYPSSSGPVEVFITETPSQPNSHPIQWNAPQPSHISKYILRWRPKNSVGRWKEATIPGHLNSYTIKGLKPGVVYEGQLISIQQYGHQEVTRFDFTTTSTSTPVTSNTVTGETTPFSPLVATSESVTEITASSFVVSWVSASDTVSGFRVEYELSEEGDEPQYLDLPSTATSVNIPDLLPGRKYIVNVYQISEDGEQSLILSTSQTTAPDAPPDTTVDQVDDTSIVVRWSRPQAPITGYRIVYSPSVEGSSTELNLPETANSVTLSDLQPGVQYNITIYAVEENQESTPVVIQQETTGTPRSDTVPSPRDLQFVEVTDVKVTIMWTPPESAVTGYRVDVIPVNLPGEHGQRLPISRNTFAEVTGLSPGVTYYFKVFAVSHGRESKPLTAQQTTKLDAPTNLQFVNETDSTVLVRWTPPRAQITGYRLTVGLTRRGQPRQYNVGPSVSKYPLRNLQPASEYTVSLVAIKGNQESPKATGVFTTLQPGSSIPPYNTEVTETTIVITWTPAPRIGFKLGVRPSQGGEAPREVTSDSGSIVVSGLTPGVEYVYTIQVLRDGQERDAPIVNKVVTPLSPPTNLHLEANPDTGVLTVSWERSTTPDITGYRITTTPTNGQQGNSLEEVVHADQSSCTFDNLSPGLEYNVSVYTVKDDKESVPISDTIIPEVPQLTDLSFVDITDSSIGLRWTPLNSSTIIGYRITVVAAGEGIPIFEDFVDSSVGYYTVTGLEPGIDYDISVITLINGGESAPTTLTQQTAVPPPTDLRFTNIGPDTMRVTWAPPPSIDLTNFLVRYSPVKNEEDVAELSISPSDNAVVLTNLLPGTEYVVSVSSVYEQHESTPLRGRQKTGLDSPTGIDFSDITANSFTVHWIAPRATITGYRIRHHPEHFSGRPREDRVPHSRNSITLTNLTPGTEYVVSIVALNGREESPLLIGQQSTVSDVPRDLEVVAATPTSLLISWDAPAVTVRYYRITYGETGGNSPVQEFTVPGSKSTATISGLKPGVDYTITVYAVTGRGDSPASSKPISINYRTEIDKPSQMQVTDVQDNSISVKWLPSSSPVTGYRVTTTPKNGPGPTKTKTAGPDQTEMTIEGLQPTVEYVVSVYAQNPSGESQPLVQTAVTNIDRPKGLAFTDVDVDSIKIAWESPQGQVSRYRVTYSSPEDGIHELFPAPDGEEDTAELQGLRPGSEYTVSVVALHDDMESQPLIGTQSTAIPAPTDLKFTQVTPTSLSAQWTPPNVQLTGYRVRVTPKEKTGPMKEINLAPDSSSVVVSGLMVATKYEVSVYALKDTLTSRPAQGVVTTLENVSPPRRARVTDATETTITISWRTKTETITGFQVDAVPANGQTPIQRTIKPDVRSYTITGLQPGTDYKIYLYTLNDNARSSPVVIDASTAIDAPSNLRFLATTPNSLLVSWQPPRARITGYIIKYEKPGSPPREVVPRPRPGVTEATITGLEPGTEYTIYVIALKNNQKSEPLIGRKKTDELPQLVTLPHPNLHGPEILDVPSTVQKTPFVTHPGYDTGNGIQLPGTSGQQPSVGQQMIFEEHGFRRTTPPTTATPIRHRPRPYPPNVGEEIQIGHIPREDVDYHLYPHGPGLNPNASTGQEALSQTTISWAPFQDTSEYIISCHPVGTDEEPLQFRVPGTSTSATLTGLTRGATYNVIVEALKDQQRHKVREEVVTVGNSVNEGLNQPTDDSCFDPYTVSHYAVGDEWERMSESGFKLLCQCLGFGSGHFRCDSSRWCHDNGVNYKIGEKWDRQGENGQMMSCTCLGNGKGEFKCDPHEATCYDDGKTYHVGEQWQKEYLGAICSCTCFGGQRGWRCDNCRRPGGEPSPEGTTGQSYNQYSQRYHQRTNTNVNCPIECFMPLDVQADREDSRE

UpaB α-domain (α^UpaB), residues 38–500, from UPEC CFT073 N116A; D119A; N146A; N175A; D217A; K245A; D246A; D281A; R310A; D336A
response (Absorbance at 405 nm) [1]: 0.039

UpaB α-domain (α^UpaB), residues 38–500, from UPEC CFT073 E165A; N189A; Q197A; N200A; Q203A; K256A; N316A
response (Absorbance at 405 nm) [1]: 0.33

UpaB α-domain (α^UpaB), residues 38–500, from UPEC CFT073 E103A; D138A; E165A; E226A
response (Absorbance at 405 nm) [1]: 0.27

UpaB α-domain (α^UpaB), residues 38–500, from UPEC CFT073 F101A; Y130A; Y187A; F195A; L201G; L202G; Y260A
response (Absorbance at 405 nm) [1]: 0.21

UpaB α-domain (α^UpaB), residues 38–500, from UPEC CFT073 (domain or fragment; other documents disagree on this pair)
pKd [2]: 4.34
